Assay: soluble fraction after stress (log2 fold change); higher = more stays soluble; pooled small domains, quantitative proteomics
Settings: stress: 75 degC
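Further: 20 min heating vs room temperature control held 20 min.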

| Sequence | soluble fraction (log2) |
| --- | --- |
| HMKSNNPLDHVRVKQRGASWAYYFEKAKVDGKRRRGEGGGYATEQDARMAGVEAYNAYIGGGAK | -0.172 |
| HMKSPVKLILRGSIYHIKISAVVNGQRIFVRESSHTTDKREAEQYANKRFAQLVEETEFRTN | -1.18 |
| HMKSQSIFNVKKGDTLSHIAVHVLKKNKQKVTPEAINKMVSNIAFRNKIKNPDLIFPGQKLVLEY | -0.169 |
| HMKSQVVAYSDFVKAVNQKQINEVQIQGDKIRAINKAGEEITVTWLQNDQKLMDDLLDNNVKTIFLE | 0.0189 |
| HMKSSYSGNFKQNVVEYMHNNHLSATETANHFKLGGGSVVLRWERIYYEEGPQALYEERRGR | -1.26 |
| HMKSYAQIAEILSGQQPNTSRKEGSNLAVHADWIDALIAKYGTALRPEEANEVVKKEIGIVFSHVLEN | -0.412 |
| HMKSYQKITPATEGNYLTTYREGDDIKTYEGVKAMYTPADFDASSVREITPEEHQSYQKAKEQALQEETEQ | -0.204 |
| HMKTALDEAKDFLNGALSKGHRPASDVVDEAKEASISEKTLKRAKLAIGIITRKEGFGSEGKWVWELPAR | -0.375 |
| HMKTATAKIKATPFGWLRVRETPSLNGAEIARVNSGESYKILERGEGWIKIKVSDTVEGWVSEAYVELS | -0.244 |
| HMKTEKYIQVISGTVNVRSGPGTSYAEIAKIDASQIYVVTAKEGEWLKISLANGTIGYVAGWLVKEVTG | -1.47 |
| HMKTEVNITPGIIDWIERYVQTDKISSSMTEDFQHWKSGTKKPTFNQVEAFSKAINVPLGYFFLKTPPAE | -0.725 |
| HMKTFSFEILADTVKKQRKAKGMTQAELSEATGINRSMIGQMENMTFKPSIEQLEALSQALDFNVIDLYTE | -0.325 |
| HMKTGHLPVTVIIDGRIISDNLYKTGLSNNWLADQLRKNSIKSSEDVFFAYLNPERKFIYQLRSNS | -1.49 |
| HMKTGNIVMVNLGWKGKYYSIKMFFPQVSKPSRKDVQDQIEKIYPGGKLYTFVVSNYEPGEPMLHA | -1.41 |
| HMKTITLDEAQEIALAEVDGKVTRAVEETDDGRSYYEFDIITNDQKHELEVDASSGKITKNEIDEDYVPS | 0.0581 |
| HMKTITVEDEQAGKRLDKALAELFPHYSRSALEKLIKEGQVLVNKSFVKSKYSLKLGDEISLQFEQL | -0.325 |
| HMKTKILAPIPGSIMVVDVKVGDTVKVGDRLVQLEAMKMENNITSEKAGKITAVLVTAGQKVLQNEVMIEL | -1.01 |
| HMKTLLSMNIKNLRKKKNMTLEELAEKVGTSKQTIQRYESGKISNIPSDKIELLAKYLDTTPAKLMGW | -0.139 |
| HMKTLNKRQQDIINLAREEGFVTVEHLSEYFKVTQQTIRRDLGYLSENLYLARTYGGAFFQS | -0.854 |

| Sequence | soluble fraction (log2) |
| --- | --- |
| HMKTTKLEELDMQKEFILKNGKYGFGVYIGGKYIGLTDIGTVNSFKDSLQLPVVSLSDIDFKTFAEKF | -1.27 |
| HMKTYEILFDILSRESDYISGEKLAQELGISRTSIWKAIQHLEKEGVHIESVKNKGYKLLSGDLLIAEKI | -1.77 |
| HMKTYGGDNSLHKFDEHHSWMVAKYGPVVKQTINGETKWLKVKKDLTLAQVKKMKLEDVLLPKSQT | -0.534 |
| HMKVDRLVSMILILLEQQRVGAQELADRFEVSVRTIYRDMEAINQAGIPVRSTSGVGGGFEIM | -0.471 |
| HMKVFREERLQLILEKLIHEKKVVVSDLVKYFNVSPSLIRMDLAELEKRDLILRTHGGAILPD | -2.9 |
| HMKVKEYKLVDWISTFTKNEGYGISQKAAMLLAEFLGDDLSRIANEIEKLKLLVEKGTTINDVHIEENI | -1.09 |
| HMKVLFLESIEGSASMGEIKDVANGYARNFLFPNGFAVPATPKNLKNVEELQAKELEIQTERDNWAA | -0.016 |
| HMKVSDLIGMLGRVTGELAPTGIVLVGNKTWTAISEDASVIASGEQVQVRSVAGLILTVSHQVD | -2.32 |
| HMKVSVPDIMDNSSLRQAEAKLRALGFRVTEPEYISGEKDWVYSVTYKGRTLNAGDKVPHEALLTLHVGNG | -0.163 |
| HMKVTADVVVADRLKAWIISNNLKPGDRLPTEQKLSEELGVARHTLREGIKRLSQLGIIGSRTGSGMYVKN | -1.06 |
| HMKWIEILKSKDGNYALLQDEKDTQFVVASGYNPDAAEDQKWGHGSYFIYWNNKENKAEMLMNAIDLFRYR | -2.21 |
| HMKYEFEFPYWSNKEAKHMIVTINYPNGTRATASIQDNDGSNPDYKRIMEEFGEEQIDANTEEGLKRR | -0.0803 |
| HMKYEGEDEYYASLVTEKIAAIGTVTEESEDAIKEARAAYDALTSAQKKLVTNYDVLDEAEK | -0.144 |
| HMKYGPSTVATLKVARLGEMGAFLDAETGDTSDDILLHKTQQTAPVKVGDEVEVFLYLDPKRRLTASMRV | -0.118 |
| HMKYGPSTVAVLTVVRESEMGAFLDAETGRTNDDILLHKTQQTEPVHIGDQVKVFLYLDPKHRLTASMRVP | -1.03 |
| HMKYNETEFKNLVAKLYNGEIEIVGKFTGLSYPILVKDKYGIMLSQKANLILNYRPTINIALNKTEYAMN | -0.289 |
| HMKYSELLLEIILQSKEHPTAEQIFIEAKKRNPKIVQATVYNNLKNLLAQGRVIRISNPGQPDRYDNT | -1.83 |
| HMKYVDYYATLGVARDADLATITKAYRKLARQTHPDLNQGADNEARFKAAAEAYATLKHPEKRAAYDELGQ | 0.0183 |
| HMKYWTISDLYSKLEEDQVELGAFSEDSNKVTVLDRQGYEHVIKILSSDVPALTELFRKKKVRFAVAG | -1.3 |

Reference: the domain aggregation screens of Martell et al. (2025)
